Data: patent US20240294622A1 (SUZHOU TRANSCENTA THERAPEUTICS, published 2024)

T1: Mouse Gremlin-His (R&D) (mouse, UniProt O70326 25-184)
T1 construct: Lys25-Asp184 with 10xHis, R&D 956-GR; also called mouse gremlin (R&D); mGREM1
T1 sequence: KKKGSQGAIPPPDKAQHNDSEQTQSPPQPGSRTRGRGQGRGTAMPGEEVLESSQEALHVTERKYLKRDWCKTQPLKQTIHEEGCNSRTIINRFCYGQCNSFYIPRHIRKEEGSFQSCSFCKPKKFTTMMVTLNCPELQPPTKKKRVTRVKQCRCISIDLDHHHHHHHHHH

T2: HGREM1-His (ACRO) (human, UniProt O60565 25-184)
T2 construct: Lys25-Asp184 of NP_037504 with C-terminal polyhistidine tag (ACRO GR1-H52H3); they are put here; also called hGREM1 (ACRO); human gremlin (ACRO)
T2 sequence: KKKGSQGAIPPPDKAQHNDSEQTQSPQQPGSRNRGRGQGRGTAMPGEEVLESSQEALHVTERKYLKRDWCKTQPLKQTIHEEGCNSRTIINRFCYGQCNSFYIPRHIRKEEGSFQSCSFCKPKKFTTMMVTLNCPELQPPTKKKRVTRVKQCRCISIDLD


Columns and labels:
[1] = target: T1, Mouse Gremlin-His (R&D); assay: ELISA on coated Mouse Gremlin-his, anti-mouse IgG-HRP
Procedure: Clear polystyrene plates (BEAVER) were coated with 100 μl/well of a […] hGREM1 (ACRO) and mouse gremlin (R&D) in high pH coating buffer overnight at 4° C. Then the plates were washed once on an automatic plate washer using PBS+0.1% Tween 20 (Sigma). 100 μl of block solution consisting of PBS+1% BSA+1% normal goat serum+0.5% Tween 20 (Sigma) was added to each well and incubated at room temperature for 2 hours. Then 100 μl of antibodies in antibody dilution buffer containing PBS+1% BSA+1% normal goat serum+0.01% Tween 20 starting from 2 μg/ml and then serial dilutions were added to each well of the plate and incubated for 1 hours at room temperature. Afterward the plates were washed three times with 200 μl of PBS+0.1% Tween20 followed by adding 100 μl/well 1:10000 Goat anti mouse IgG-HRP (abcam), and incubate for 1 hour at room temperature. They were then washed 3× with PBS+0.1% Tween20. Finally, 100 µl/well of TMB (Pierce) was added to each well and after several minutes add 50 μl of stop solution to each well. The plates were read on a Multiscan FC microplate reader (Thermo Scientific) at […].

[2] = target: T2, HGREM1-His (ACRO); assay: ELISA on coated hGREM1 (Example 5: ACRO; sheet title: DAN Family,R&D,0.5ug/ml), anti-mouse IgG-HRP
Procedure: In addition, the specificity of the binding of 14E3 and a benchmark antibody was assessed with ELISA. Briefly, clear polystyrene plates (BEAVER) were coated with 100 μl/well of a […] hGREM1 (ACRO), or human gremlin-2 (R&D), human COCO (R&D) and human DAN protein (R&D) in high pH coating buffer overnight at 4° C. Then the plates were washed once on an automatic plate washer using PBS+0.1% Tween 20 (Sigma). 100 μl of block solution consisting of PBS+1% BSA+1% normal goat serum+0.5% Tween 20 (Sigma) was added to each well and incubated at room temperature for 2 hours. Then 100 ul of antibodies in antibody dilution buffer containing PBS+1% BSA+1% normal goat serum+0.01% Tween 20 starting from 2 μg/ml and then 5 fold serial dilution were added to each well of the plate and incubated for 1 hours at room temperature. Afterward the plates were washed three times with 200 ul of PBS+0.1% Tween20 followed by adding 100 μl/well 1:10000 Goat anti mouse IgG-HRP (Abcam), and incubate for 1 hour at room temperature. They were then washed 3× with PBS+0.1% Tween20. Finally, 100 µl/well of TMB (Pierce) was added to each well and after 5 minutes add 50 ul of stop solution to each well. The plates were read on a Multiscan FC microplate reader (Thermo Scientific) at […].

[3] = target: T2, HGREM1-His (ACRO); assay: ELISA, coated hGREM1 (ACRO)
[4] = target: T2, HGREM1-His (ACRO); assay: blocking ELISA, Human Gremlin-1 binding to BMP7; column Percentage
Procedure: (§1) In addition, the ability of serial dilutions of antibodies provided herein to block Gremlin binding to human BMP2/4/7 was also examined via ELISA. Plates were coated with recombinant human BMP2/4/7 (0.5 μg/ml) overnight and then serial dilutions of antibodies were incubated with 1 μg/ml of human Gremlin-his modified for 1 h at RT before this complex was added to coated plates and allowed to incubate for an additional hour at RT. The plates were then washed and added with anti-his HRP (GenScript). Plates were then developed with a TMB solution and stopped by adding stop solution. The plates were read on a plate reader at 450 nm. […] The chimeric anti-gremlin 1 antibodies (69H5-chi) and chimeric anti-gremlin 1 antibodies (22F1-chi) also can inhibit the binding of gremlin to BMP2 and BMP4 (see, FIG. 3E and FIG. 3F). The chimeric anti-gremlin 1 antibodies (56C11-chi) can inhibit the binding of gremlin to BMP2 (see, FIG. 3E).

[5] = target: T2, HGREM1-His (ACRO); assay: competition ELISA, Gremlin-his binding to coated BMP7
[6] = target: T2, HGREM1-His (ACRO); assay: blocking ELISA, Human Gremlin-1 binding to BMP4; column Percentage
Procedure: as §1

| binding result [1] | EC50 (read off the curve) [2] | EC50 [3] | IC50 [4] | maximal blocking percentage [5] | IC50 [6] | Binder |
| --- | --- | --- | --- | --- | --- | --- |
| no binding | ~0.01 µg/mL | 0.0136 µg/mL |  |  |  | 14E3 (antibody, V domains shown, mouse hybridoma antibody; also called hybridoma 14E3; anti-gremlin1 antibody 14E3) VH: QIQLVQSGPELKKPGETVKISCKTSGSTFTTYGMAWMKQAPGKGLTWMGWINTLSGEPTYADDFKGRFAFSLKTSANTAYLQINNLKNEDAATYFCAREPMDYWGQGTSVIVSS VL: not shown |
|  |  | 0.00587 µg/mL | 0.683 µg/mL | ≥ 50% | 0.512 µg/mL | 36F5 (antibody, V domains shown, mouse hybridoma antibody; also called hybridoma 36F5) VH: QVQLQQSGAELARPGASVKLSCKASGYSFTSSGIGWVKQRSGQGLEWIGEIYPRSGNTYNNEKFKGKATLTADKSSSTVYMELRSLTSEDSAVYFCVREAYSHHYYAMDYWGQGTSVTVFS VL: DVLMTQTPLSLPVSLGGQASISCRSSQSLLHSNGNTYLEWYLQKPGQSPKLLIYKVSNRFSGVPDRLSGSGSGTDFTLKISRVEAEDLGVYYCFQGSHVPFTFGSGTKLEIN |
